92 variants from IntAct's records for PubMed 29039417 can be followed below.

First the molecules themselves.
B1: BBSome complex member BBS5 (Homo sapiens), Q8N3I7 (parent)
chain: MSVLDALWEDRDVRFDLSAQQMKTRPGEVLIDCLDSIEDTKGNNGDRGRLLVTNLRILWHSLALSRVNVSVGYNCILNITTRTANSKLRGQTEALYILTKCNSTRFEFIFTNLVPGSPRLFTSVMAVHRAYETSKMYRDFKLRSALIQNKQLRLLPQEHVYDKINGVWNLSSDQGNLGTFFITNVRIVWHANMNDSFNVSIPYLQIRSIKIRDSKFGLALVIESSQQSGGYVLGFKIDPVEKLQESVKEINSLHKVYSASPIFGVDYEMEEKPQPLEALTVEQIQDDVEIDSDGHTDAFVAYFADGNKQQDREPVFSEELGLAIEKLKDGFTLQGLWEVMS
partner: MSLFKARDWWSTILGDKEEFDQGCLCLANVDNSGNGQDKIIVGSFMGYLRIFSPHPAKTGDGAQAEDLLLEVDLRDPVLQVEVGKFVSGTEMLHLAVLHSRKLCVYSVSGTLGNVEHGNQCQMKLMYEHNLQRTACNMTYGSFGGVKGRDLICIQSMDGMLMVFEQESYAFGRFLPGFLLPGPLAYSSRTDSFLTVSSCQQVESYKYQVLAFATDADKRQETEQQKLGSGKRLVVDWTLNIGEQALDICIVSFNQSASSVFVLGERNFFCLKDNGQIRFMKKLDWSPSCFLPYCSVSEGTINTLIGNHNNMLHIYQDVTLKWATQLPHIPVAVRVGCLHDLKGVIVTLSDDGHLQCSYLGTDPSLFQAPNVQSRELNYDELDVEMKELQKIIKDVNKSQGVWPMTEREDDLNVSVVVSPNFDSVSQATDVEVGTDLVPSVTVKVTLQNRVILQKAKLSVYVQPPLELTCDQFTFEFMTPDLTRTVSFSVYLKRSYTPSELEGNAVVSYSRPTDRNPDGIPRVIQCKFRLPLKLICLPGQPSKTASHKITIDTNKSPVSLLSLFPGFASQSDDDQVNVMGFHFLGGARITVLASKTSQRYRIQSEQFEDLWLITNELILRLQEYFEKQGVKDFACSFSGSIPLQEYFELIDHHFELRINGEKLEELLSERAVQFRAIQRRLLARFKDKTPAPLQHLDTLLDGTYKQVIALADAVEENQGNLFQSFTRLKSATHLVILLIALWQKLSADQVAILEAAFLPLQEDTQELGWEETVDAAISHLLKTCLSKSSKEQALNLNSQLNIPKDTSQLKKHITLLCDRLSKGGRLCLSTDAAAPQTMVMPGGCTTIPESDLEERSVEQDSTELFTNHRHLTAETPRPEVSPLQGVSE

The variants in this test derive from B1. The following applies: with pthb1_human BBS9, Q3SYG4.
As to S117E, the “effect of a mutation on the interaction” value was “with no effect”.

Turning to S117K, the “effect of a mutation on the interaction” value is reported as “with no effect”.

Take S117A: the “effect of a mutation on the interaction” value is recorded as “with no effect”.

Regarding F140E, the “effect of a mutation on the interaction” value is given as “with no effect”.

As to F140K, the “effect of a mutation on the interaction” value is reported as “with no effect”.

As to F140A, the “effect of a mutation on the interaction” value is listed as “with no effect”.

For the variant Y161K, the “effect of a mutation on the interaction” value is given as “with no effect”.

Regarding Y161A, the “effect of a mutation on the interaction” value is recorded as “with no effect”.

Turning to Y161E, the “effect of a mutation on the interaction” value is recorded as “with no effect”.

Regarding S123K, the “effect of a mutation on the interaction” value is listed as “with no effect”.

Regarding S123E, the “effect of a mutation on the interaction” value is “with no effect”.

Take S123F: the “effect of a mutation on the interaction” value was “disrupting interaction strength”.

As for S123A, the “effect of a mutation on the interaction” value is given as “with no effect”.

L120E: the “effect of a mutation on the interaction” value is recorded as “with no effect”.

Consider L120K, for which the “effect of a mutation on the interaction” value was “with no effect”.

Take L120A: the “effect of a mutation on the interaction” value is given as “with no effect”.

On to K135A, for which the “effect of a mutation on the interaction” value is “with no effect”.

For the variant K135E, the “effect of a mutation on the interaction” value is reported as “with no effect”.

On to F110K, for which the “effect of a mutation on the interaction” value was “with no effect”.

As for T122K, the “effect of a mutation on the interaction” value is recorded as “with no effect”.

As to T122A, the “effect of a mutation on the interaction” value is reported as “with no effect”.

Take T122E: the “effect of a mutation on the interaction” value is on record as “with no effect”.

With Q148A, the “effect of a mutation on the interaction” value is “with no effect”.

Regarding Q148E, the “effect of a mutation on the interaction” value is listed as “with no effect”.

For the variant Q148K, the “effect of a mutation on the interaction” value is listed as “with no effect”.

Regarding M125E, the “effect of a mutation on the interaction” value is given as “with no effect”.

Turning to M125K, the “effect of a mutation on the interaction” value is reported as “with no effect”.

With M125A, the “effect of a mutation on the interaction” value was “with no effect”.

With P156E, the “effect of a mutation on the interaction” value was “with no effect”.

Turning to P156K, the “effect of a mutation on the interaction” value is listed as “with no effect”.

As for P156A, the “effect of a mutation on the interaction” value was “with no effect”.

Turning to R119K, the “effect of a mutation on the interaction” value is “with no effect”.

On to R119E, for which the “effect of a mutation on the interaction” value is “with no effect”.

With R119A, the “effect of a mutation on the interaction” value is listed as “with no effect”.

As for M136E, the “effect of a mutation on the interaction” value is “with no effect”.

For M136K, the “effect of a mutation on the interaction” value is recorded as “with no effect”.

Consider M136A, for which the “effect of a mutation on the interaction” value was “with no effect”.

Turning to H128E, the “effect of a mutation on the interaction” value is given as “with no effect”.

As to H128K, the “effect of a mutation on the interaction” value is given as “with no effect”.

As for H128A, the “effect of a mutation on the interaction” value is listed as “with no effect”.

Regarding I164A, the “effect of a mutation on the interaction” value is “with no effect”.

Turning to I164E, the “effect of a mutation on the interaction” value is “with no effect”.

For the variant I164K, the “effect of a mutation on the interaction” value is reported as “with no effect”.

H159K: the “effect of a mutation on the interaction” value is “with no effect”.

Turning to H159A, the “effect of a mutation on the interaction” value is “with no effect”.

As for H159E, the “effect of a mutation on the interaction” value is “with no effect”.

Regarding L155E, the “effect of a mutation on the interaction” value was “with no effect”.

Consider L155K, for which the “effect of a mutation on the interaction” value was “with no effect”.

Consider L155A, for which the “effect of a mutation on the interaction” value is “with no effect”.

Regarding D139K, the “effect of a mutation on the interaction” value is reported as “with no effect”.

As to D139E, the “effect of a mutation on the interaction” value is listed as “with no effect”.

For the variant D139A, the “effect of a mutation on the interaction” value is “with no effect”.

Consider V124A, for which the “effect of a mutation on the interaction” value was “with no effect”.

As to V124K, the “effect of a mutation on the interaction” value is “disrupting interaction strength”.

Consider V124E, for which the “effect of a mutation on the interaction” value is on record as “with no effect”.

Consider F121A, for which the “effect of a mutation on the interaction” value was “with no effect”.

On to F121K, for which the “effect of a mutation on the interaction” value is “with no effect”.

In the case of F121E, the “effect of a mutation on the interaction” value is listed as “with no effect”.

Consider N169A, for which the “effect of a mutation on the interaction” value was “with no effect”.

With N169K, the “effect of a mutation on the interaction” value is reported as “with no effect”.

For the variant N169E, the “effect of a mutation on the interaction” value is listed as “with no effect”.

With G166A, the “effect of a mutation on the interaction” value is “with no effect”.

With G166E, the “effect of a mutation on the interaction” value is “with no effect”.

As for G166K, the “effect of a mutation on the interaction” value is “with no effect”.

On to R129E, for which the “effect of a mutation on the interaction” value is on record as “with no effect”.

In the case of R129A, the “effect of a mutation on the interaction” value was “with no effect”.

Take R129K: the “effect of a mutation on the interaction” value is on record as “with no effect”.

As for R138E, the “effect of a mutation on the interaction” value is reported as “with no effect”.

With R138K, the “effect of a mutation on the interaction” value is “with no effect”.

As for R138A, the “effect of a mutation on the interaction” value is listed as “with no effect”.

Regarding G116K, the “effect of a mutation on the interaction” value is “with no effect”.

G116A: the “effect of a mutation on the interaction” value is reported as “with no effect”.

As to G116E, the “effect of a mutation on the interaction” value was “with no effect”.

For the variant S172E, the “effect of a mutation on the interaction” value is given as “with no effect”.

For the variant S172K, the “effect of a mutation on the interaction” value was “with no effect”.

In the case of S172A, the “effect of a mutation on the interaction” value is given as “with no effect”.

P118A: the “effect of a mutation on the interaction” value is “with no effect”.

For P118K, the “effect of a mutation on the interaction” value is listed as “with no effect”.

On to P118E, for which the “effect of a mutation on the interaction” value is recorded as “with no effect”.

As for E132K, the “effect of a mutation on the interaction” value is recorded as “with no effect”.

Take E132A: the “effect of a mutation on the interaction” value is listed as “with no effect”.

Turning to V160E, the “effect of a mutation on the interaction” value was “with no effect”.

On to V160K, for which the “effect of a mutation on the interaction” value was “with no effect”.

As to V160A, the “effect of a mutation on the interaction” value is “with no effect”.

As for L154A, the “effect of a mutation on the interaction” value is given as “with no effect”.

Regarding L154K, the “effect of a mutation on the interaction” value is given as “with no effect”.

Consider L154E, for which the “effect of a mutation on the interaction” value is on record as “with no effect”.

With I147E, the “effect of a mutation on the interaction” value was “with no effect”.

On to I147K, for which the “effect of a mutation on the interaction” value was “with no effect”.

As for I147A, the “effect of a mutation on the interaction” value is on record as “with no effect”.

In the case of Y137E, the “effect of a mutation on the interaction” value was “with no effect”.

On to Y137A, for which the “effect of a mutation on the interaction” value is on record as “with no effect”.
